Experimental data from patent publication US20100323443A1 (BIOLAMINA, published 2010).

How the values were obtained:
[1] = molecular target: β1-integrin on mouse embryonic stem cells (mouse) (UniProt P09055); experiment: cell-based or functional assay
[2] = molecular target: T1, human recombinant laminin-511 (human, UniProt O15230 36-3695; P07942 22-1786; P11047 34-1609); experiment: summary of the adhesion-blocking assays
T1 construct: Coated on plates (30 ug/ml) in the adhesion assays; also called laminin-10
Procedure: Attachment assay was performed as described ([Extracellular Matrix Protocols, 2000). Briefly, MaxiSorp 96-well plates (Nunc) coated by extracellular matrix proteins as described above and blocked by 1% heat-denatured BSA solution. Undifferentiated embryonic cells were plated at cell density of 800 cell/mm² upon extracellular matrix-coated plates and were left to adhere for 1 hour at 37° C. Non-adherent cells were washed away, and adherent cells were fixed for 20 min by 5% glutaraldehyde, stained by 0.1% Crystal Violet.
Adhesion-blocking assays were performed as described previously. […] Non-attached cells were removed and the remaining cells were fixed, stained and quantified as described above (Cell adhesion assay). Error bars show standard error (SEM).

Row | Molecule | Blocking those integrins inhibits ES cell adhesion to LN-511 [1] [%] | binding result [2]
1 | human recombinant laminin-511, O15230 36-3695; P07942 22-1786; P11047 34-1609 | 100 | –
2 | α6β1 integrin on mouse embryonic stem cells (receptor, whole, on cells) chain 1: FNLDTREDNVIRKSGDPGSLFGFSLAMHWQLQPEDKRLLLVGAPRAEALPLQRANRTGGLYSCDITSRGPCTRIEFDNDADPMSESKEDQWMGVTVQSQGPGGKVVTCAHRYEKRQHVNTKQESRDIFGRCYVLSQNLRIEDDMDGGDWSFCDGRLRGHEKFGSCQQGVAATFTKDFHYIVFGAPGTYNWKGIVRVEQKNNTFFDMNIFEDGPYEVGGETDHDESLVPVPANSYLGFSLDSGKGIVSKDDITFVSGAPRANHSGAVVLLKRDMKSAHLLPEYIFDGEGLASSFGYDVAVVDLNADGWQDIVIGAPQYFDRDGEVGGAVYVYINQQGKWSNVKPIRLNGTKDSMFGISVKNIGDINQDGYPDIAVGAPYDDLGKVFIYHGSPTGIITKPTQVLEGTSPYFGYSIAGNMDLDRNSYPDLAVGSLSDSVTIFRSRPVINILKTITVTPNRIDLRQKSMCGSPSGICLKVKACFEYTAKPSGYNPPISILGILEAEKERRKSGLSSRVQFRNQGSEPKYTQELTLNRQKQRACMEETLWLQENIRDKLRPIPITASVEIQEPSSRRRVNSLPEVLPILNSNEAKTVQTDVHFLKEGCGDDNVCNSNLKLEYKFGTREGNQDKFSYLPIQKGIPELVLKDQKDIALEITVTNSPSDPRNPRKDGDDAHEAKLIATFPDTLTYSAYRELRAFPEKQLSCVANQNGSQADCELGNPFKRNSSVTFYLILSTTEVTFDTTDLDINLKLETTSNQDNLAPITAKAKVVIELLLSVSGVAKPSQVYFGGTVVGEQAMKSEDEVGSLIEYEFRVINLGKPLKNLGTATLNIQWPKEISNGKWLLYLMKVESKGLEQIVCEPHNEINYLKLKESHNSRKKRELPEKQIDDSRKFSLFPERKYQTLNCSVNVRCVNIRCPLRGLDSKASLVLRSRLWNSTFLEEYSKLNYLDILLRASIDVTAAAQNIKLPHAGTQVRVTVFPSKTVAQYSGVAWWIILLAVLAGILMLALLVFLLWKCGFFKRSRYDDSIPRYHAVRIRKEEREIKDEKHMDNLEKKQWITKWNENESYS chain 2: QTDKNRCLKANAKSCGECIQAGPNCGWCTNTTFLQEGMPTSARCDDLEALKKKGCQPSDIENPRGSQTIKKNKNVTNRSKGMAEKLRPEDITQIQPQQLLLKLRSGEPQKFTLKFKRAEDYPIDLYYLMDLSYSMKDDLENVKSLGTDLMNEMRRITSDFRIGFGSFVEKTVMPYISTTPAKLRNPCTSEQNCTSPFSYKNVLSLTDRGEFFNELVGQQRISGNLDSPEGGFDAIMQVAVCGSLIGWRNVTRLLVFSTDAGFHFAGDGKLGGIVLPNDGQCHLENNVYTMSHYYDYPSIAHLVQKLSENNIQTIFAVTEEFQPVYKELKNLIPKSAVGTLSGNSSNVIQLIIDAYNSLSSEVILENSKLPDGVTINYKSYCKNGVNGTGENGRKCSNISIGDEVQFEISITANKCPNKESETIKIKPLGFTEEVEVVLQFICKCNCQSHGIPASPKCHEGNGTFECGACRCNEGRVGRHCECSTDEVNSEDMDAYCRKENSSEICSNNGECVCGQCVCRKRDNTNEIYSGKFCECDNFNCDRSNGLICGGNGVCRCRVCECYPNYTGSACDCSLDTGPCLASNGQICNGRGICECGACKCTDPKFQGPTCETCQTCLGVCAEHKECVQCRAFNKGEKKDTCAQECSHFNLTKVESREKLPQPVQVDPVTHCKEKDIDDCWFYFTYSVNGNNEAIVHVVETPDCPTGPDIIPIVAGVVAGIVLIGLALLLIWKLLMIIHDRREFAKFEKEKMNAKWDTGENPIYKSAVTTVVNPKYEGK | – | binds
3 | αVβ1 integrin on mouse embryonic stem cells (receptor, whole, on cells) chain 1: FNLDVESPAEYAGPEGSYFGFAVDFFEPSTSSRMFLLVGAPKANTTQPGIVEGGQVLKCECSSSRRCQPIEFDSTGNRDYAKDDPLEFKSHQWFGASVRSKQDKILACAPLYHWRTEMKQEREPVGTCFLQDGTKTVEYAPCRSKNIDADGQGFCQGGFSIDFTKADRVLLGGPGSFYWQGQLISDQVAEIISKYDPNVYSIKYNNQLATRTAQAIFDDSYLGYSVAVGDFNGDGIEDFVSGVPRAARTLGMVYIYDGKNMSSLHNFTGEQMAAYFGFSVAATDINGDDYADVFIGAPLFMDRGSDGKLQEVGQVSVSLQRAVGDFQTTKLNGFEVFARFGSAIAPLGDLDQDGFNDIAIAAPYGGEDKKGLVYIFNGRSTGLNSVPSQILEGQWAAQSMPPSFGYSMKGATDVDRNGYPDLVVGAFGVDRAVLYRARPVVTVNAGLEVYPSILNQDNKICPLPGTALKVSCFNVRFCLKADGKGTLPRKLHFQVELLLDKLKQKGAIRRALFLHNRSPVHSKTMTVFRGGQMQCEELVAYLRDESEFRDKLTPITIFMEYRLDQRTAADATGLQPILNQFTPANVSRQAHILLDCGEDNVCKPKLEVSVNSDQKKIYIGDDNPLTLTVKAQNQGEGAYEAELIVSIPPQADFIGVVRNNEALARLSCAFKTENQTRQVVCDLGNPMKAGTQLLAGLRFSVHQQSEMDTSVKFDLKIQSSNSFDNVSPVVSYKVDLAVLAAVEIRGVSSPDHIFLPIPNWEYKENPETEEDVGPIVQHIYELRNNGPSSFSKAILNLQWPYKYNNNTLLYILHYDIDGPMNCTADTEINPLRIKTPEKNDTAAAGQGERNHLITKRDLTLREGDVHTLGCGIAKCLQITCQVGRLDRGKSAILYVKSLLWTETFMNKENQNHSYSLKSSASFNIIEFPYKNLPIEDLFNSTLVTTNITWGIQPAPMPVPVWVIILAVLAGLLLLAVLVFVMYRMGFFKRVRPPQEEQEREQLQPHENGEGNSET chain 2: QTDKNRCLKANAKSCGECIQAGPNCGWCTNTTFLQEGMPTSARCDDLEALKKKGCQPSDIENPRGSQTIKKNKNVTNRSKGMAEKLRPEDITQIQPQQLLLKLRSGEPQKFTLKFKRAEDYPIDLYYLMDLSYSMKDDLENVKSLGTDLMNEMRRITSDFRIGFGSFVEKTVMPYISTTPAKLRNPCTSEQNCTSPFSYKNVLSLTDRGEFFNELVGQQRISGNLDSPEGGFDAIMQVAVCGSLIGWRNVTRLLVFSTDAGFHFAGDGKLGGIVLPNDGQCHLENNVYTMSHYYDYPSIAHLVQKLSENNIQTIFAVTEEFQPVYKELKNLIPKSAVGTLSGNSSNVIQLIIDAYNSLSSEVILENSKLPDGVTINYKSYCKNGVNGTGENGRKCSNISIGDEVQFEISITANKCPNKESETIKIKPLGFTEEVEVVLQFICKCNCQSHGIPASPKCHEGNGTFECGACRCNEGRVGRHCECSTDEVNSEDMDAYCRKENSSEICSNNGECVCGQCVCRKRDNTNEIYSGKFCECDNFNCDRSNGLICGGNGVCRCRVCECYPNYTGSACDCSLDTGPCLASNGQICNGRGICECGACKCTDPKFQGPTCETCQTCLGVCAEHKECVQCRAFNKGEKKDTCAQECSHFNLTKVESREKLPQPVQVDPVTHCKEKDIDDCWFYFTYSVNGNNEAIVHVVETPDCPTGPDIIPIVAGVVAGIVLIGLALLLIWKLLMIIHDRREFAKFEKEKMNAKWDTGENPIYKSAVTTVVNPKYEGK | – | binds
